Source: the supplement of paper PMC10065799, “High-throughput profiling of sequence recognition by tyrosine kinases and SH2 domains using bacterial peptide display” (eLife, 2023)

Assays:
Fyn = Fyn (UniProt P06241); experiment: phosphorylation enrichment, bacterial display (enrichment ratio); higher = better substrate or ligand; peptides without Tyr show the background
Fer (mouse) = experiment: as above
Fes = Fes (UniProt P07332); experiment: as above
Jak2 = Jak2 (UniProt O60674); experiment: as above
Chain of Jak2 (O60674 whole entry, looked up): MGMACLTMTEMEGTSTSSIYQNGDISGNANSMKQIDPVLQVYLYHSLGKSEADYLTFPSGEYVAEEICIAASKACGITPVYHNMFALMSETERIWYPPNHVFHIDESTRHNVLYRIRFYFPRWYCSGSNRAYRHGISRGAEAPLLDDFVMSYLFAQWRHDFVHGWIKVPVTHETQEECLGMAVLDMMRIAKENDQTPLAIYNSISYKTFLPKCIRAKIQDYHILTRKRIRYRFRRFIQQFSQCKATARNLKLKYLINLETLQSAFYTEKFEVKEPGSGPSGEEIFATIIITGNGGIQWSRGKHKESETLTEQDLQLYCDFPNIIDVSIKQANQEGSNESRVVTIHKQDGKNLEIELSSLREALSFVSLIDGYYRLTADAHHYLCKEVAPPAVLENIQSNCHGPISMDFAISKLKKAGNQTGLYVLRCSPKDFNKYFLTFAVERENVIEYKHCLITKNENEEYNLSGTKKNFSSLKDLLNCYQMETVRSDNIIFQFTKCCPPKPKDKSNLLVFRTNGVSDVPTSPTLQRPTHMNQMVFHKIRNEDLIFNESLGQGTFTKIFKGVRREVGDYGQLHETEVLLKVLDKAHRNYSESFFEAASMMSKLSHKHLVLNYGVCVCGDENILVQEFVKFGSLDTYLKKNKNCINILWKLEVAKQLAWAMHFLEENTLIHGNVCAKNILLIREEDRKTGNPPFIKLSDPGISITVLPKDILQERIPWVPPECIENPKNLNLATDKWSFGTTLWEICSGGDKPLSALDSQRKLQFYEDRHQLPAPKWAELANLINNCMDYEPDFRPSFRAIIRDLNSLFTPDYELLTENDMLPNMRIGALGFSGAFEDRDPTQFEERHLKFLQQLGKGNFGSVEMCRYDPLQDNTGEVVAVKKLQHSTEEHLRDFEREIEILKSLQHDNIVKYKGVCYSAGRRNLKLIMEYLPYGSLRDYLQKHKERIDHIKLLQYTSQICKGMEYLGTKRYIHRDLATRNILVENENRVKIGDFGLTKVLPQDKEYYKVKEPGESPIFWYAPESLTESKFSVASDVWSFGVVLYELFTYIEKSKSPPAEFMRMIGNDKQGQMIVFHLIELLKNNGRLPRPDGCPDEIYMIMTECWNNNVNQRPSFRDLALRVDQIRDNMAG

Hck = Hck (UniProt P08631); experiment: as above
Chain of Hck (P08631 whole entry, looked up): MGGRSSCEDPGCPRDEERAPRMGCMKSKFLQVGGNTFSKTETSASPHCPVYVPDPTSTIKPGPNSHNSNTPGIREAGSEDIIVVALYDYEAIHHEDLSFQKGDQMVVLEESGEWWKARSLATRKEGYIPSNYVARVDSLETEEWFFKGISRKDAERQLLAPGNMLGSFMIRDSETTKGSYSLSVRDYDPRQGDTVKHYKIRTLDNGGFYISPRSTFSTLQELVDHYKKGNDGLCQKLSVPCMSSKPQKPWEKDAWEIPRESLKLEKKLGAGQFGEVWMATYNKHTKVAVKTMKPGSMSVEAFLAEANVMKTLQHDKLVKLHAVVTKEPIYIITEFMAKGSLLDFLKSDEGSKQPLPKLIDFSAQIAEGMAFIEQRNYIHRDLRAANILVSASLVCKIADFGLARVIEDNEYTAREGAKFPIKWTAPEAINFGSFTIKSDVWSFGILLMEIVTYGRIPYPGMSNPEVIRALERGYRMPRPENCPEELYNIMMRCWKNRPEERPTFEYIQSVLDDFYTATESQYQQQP

FGFR3 = FGFR3 (UniProt P22607); experiment: as above
EPHB2 = EPHB2 (UniProt P29323); experiment: as above
c-Src = experiment: as above
EPHB1 = EPHB1 (UniProt P54762); experiment: as above
Chain of EPHB1 (P54762 whole entry, looked up): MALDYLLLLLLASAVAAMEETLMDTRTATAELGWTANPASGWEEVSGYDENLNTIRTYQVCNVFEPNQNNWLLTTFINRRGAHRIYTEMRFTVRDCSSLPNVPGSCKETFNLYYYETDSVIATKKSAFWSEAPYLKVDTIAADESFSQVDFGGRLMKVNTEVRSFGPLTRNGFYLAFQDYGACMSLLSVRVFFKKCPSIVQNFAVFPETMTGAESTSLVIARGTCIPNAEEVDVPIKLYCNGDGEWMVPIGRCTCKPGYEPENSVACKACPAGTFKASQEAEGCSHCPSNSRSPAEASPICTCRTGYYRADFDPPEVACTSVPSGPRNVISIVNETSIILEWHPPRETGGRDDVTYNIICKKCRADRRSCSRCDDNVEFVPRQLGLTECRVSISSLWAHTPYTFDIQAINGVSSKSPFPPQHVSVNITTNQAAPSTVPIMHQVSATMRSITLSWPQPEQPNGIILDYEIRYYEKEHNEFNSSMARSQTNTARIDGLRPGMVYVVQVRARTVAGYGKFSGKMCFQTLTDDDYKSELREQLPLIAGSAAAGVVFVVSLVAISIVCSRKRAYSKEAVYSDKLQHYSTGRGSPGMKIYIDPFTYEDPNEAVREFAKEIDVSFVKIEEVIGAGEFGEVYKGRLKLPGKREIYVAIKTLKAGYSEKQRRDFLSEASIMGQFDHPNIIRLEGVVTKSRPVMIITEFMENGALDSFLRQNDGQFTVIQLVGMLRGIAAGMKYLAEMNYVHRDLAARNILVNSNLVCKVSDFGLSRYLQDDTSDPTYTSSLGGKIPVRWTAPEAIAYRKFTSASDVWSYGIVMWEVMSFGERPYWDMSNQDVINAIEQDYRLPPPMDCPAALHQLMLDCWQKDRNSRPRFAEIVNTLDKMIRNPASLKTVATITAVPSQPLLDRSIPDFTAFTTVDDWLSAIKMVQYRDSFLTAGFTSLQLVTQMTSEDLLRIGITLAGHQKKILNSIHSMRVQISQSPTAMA

FGFR1 = FGFR1 (UniProt P11362); experiment: as above
Chain of FGFR1 (P11362 whole entry, looked up): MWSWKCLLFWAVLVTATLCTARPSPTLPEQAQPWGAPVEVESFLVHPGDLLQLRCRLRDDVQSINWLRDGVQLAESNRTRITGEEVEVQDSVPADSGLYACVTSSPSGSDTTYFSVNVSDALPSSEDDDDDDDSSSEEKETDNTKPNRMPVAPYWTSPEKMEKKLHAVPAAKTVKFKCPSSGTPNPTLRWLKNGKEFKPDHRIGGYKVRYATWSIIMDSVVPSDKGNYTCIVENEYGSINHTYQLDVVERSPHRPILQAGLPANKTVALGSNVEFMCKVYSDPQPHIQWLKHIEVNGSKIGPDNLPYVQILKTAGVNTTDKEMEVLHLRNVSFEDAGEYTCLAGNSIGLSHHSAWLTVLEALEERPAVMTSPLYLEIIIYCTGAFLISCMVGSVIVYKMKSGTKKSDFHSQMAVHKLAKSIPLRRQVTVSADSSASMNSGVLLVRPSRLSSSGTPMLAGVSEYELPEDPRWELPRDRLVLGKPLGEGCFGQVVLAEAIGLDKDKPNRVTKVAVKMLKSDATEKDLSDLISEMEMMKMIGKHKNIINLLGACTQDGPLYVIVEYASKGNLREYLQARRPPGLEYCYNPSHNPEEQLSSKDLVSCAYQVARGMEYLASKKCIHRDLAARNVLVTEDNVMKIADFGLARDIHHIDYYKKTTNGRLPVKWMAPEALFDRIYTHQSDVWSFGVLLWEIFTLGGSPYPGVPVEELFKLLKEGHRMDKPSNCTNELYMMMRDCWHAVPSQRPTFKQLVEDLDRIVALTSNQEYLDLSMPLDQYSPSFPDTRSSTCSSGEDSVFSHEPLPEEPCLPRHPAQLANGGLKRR

MERTK = MERTK (UniProt Q12866); experiment: as above
AncSZ = experiment: as above
c-Abl (mouse) = experiment: as above
c-Src SH2 = experiment: SH2 binding enrichment of the phosphorylated peptide, bacterial display (enrichment ratio); higher = better substrate or ligand; peptides without Tyr show the background
SHP2-C SH2 = experiment: as above
Grb2 SH2 = Grb2 SH2 (UniProt P62993); experiment: as above
Chain of Grb2 SH2 (P62993 whole entry, looked up, the tested form may be a part): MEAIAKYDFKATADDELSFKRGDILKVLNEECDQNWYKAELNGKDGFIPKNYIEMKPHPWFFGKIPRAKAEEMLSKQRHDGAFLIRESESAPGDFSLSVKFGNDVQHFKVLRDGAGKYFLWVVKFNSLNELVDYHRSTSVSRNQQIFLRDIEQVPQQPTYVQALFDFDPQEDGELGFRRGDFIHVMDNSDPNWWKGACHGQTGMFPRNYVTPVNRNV
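For SH2 binding enrichment of the phosphorylated peptide, bacterial display in this document: peptide library displayed on the E. coli surface as eCPX fusions, selected cells deep-sequenced, score is each peptide's frequency after selection divided by its frequency in the input.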
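For phosphorylation enrichment, bacterial display in this document: 11-residue human phosphosite peptides and single-mutation variants displayed on the E. coli surface, counted by deep sequencing, each peptide's frequency after selection divided by its frequency in the unselected input library; frequency after pTyr selection over input frequency; kinase dosed for 20-30% of maximal phosphorylation in three min.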

Chain of Fes (P07332 whole entry, looked up): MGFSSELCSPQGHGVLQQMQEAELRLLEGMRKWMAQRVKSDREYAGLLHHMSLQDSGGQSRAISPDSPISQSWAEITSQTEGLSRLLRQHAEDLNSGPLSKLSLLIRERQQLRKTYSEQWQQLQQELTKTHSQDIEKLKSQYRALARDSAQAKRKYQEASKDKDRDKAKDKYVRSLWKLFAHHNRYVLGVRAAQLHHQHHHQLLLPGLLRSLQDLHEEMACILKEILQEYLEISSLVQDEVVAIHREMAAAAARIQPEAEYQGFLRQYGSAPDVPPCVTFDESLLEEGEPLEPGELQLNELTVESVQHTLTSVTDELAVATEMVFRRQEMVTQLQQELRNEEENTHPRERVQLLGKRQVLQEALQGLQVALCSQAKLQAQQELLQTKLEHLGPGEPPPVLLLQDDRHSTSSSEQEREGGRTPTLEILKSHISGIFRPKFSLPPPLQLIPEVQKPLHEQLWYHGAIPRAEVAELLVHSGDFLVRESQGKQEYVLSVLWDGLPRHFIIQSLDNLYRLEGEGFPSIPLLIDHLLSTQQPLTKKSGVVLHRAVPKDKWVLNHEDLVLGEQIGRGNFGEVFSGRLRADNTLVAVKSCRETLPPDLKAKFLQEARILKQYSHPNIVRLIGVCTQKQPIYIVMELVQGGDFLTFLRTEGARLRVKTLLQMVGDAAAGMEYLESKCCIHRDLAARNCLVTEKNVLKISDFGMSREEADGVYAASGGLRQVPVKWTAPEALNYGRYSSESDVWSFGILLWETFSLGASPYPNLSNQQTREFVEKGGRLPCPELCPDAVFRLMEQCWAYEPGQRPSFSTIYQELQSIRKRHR
Chain of Fyn (P06241 whole entry, looked up): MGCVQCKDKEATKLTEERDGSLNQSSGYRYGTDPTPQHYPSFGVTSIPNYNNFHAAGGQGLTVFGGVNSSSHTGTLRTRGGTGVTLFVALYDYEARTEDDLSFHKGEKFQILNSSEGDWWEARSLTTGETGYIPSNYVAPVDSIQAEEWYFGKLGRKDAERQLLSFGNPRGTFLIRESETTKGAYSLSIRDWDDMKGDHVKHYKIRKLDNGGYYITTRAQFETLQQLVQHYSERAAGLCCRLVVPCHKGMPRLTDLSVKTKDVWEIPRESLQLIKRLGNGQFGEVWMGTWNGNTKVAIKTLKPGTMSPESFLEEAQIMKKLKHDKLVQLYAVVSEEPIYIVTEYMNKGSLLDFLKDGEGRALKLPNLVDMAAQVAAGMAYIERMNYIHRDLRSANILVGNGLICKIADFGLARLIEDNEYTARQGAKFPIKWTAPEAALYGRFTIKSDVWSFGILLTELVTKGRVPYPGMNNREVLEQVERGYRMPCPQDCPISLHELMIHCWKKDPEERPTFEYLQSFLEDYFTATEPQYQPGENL

Row | Sequence | phosphorylation enrichment (Fyn) | phosphorylation enrichment (Fer (mouse)) | phosphorylation enrichment (Fes) | phosphorylation enrichment (Jak2) | phosphorylation enrichment (Hck) | phosphorylation enrichment (FGFR3) | phosphorylation enrichment (EPHB2) | phosphorylation enrichment (c-Src) | phosphorylation enrichment (EPHB1) | phosphorylation enrichment (FGFR1) | phosphorylation enrichment (MERTK) | phosphorylation enrichment (AncSZ) | phosphorylation enrichment (c-Abl (mouse)) | SH2 binding enrichment (c-Src SH2) | SH2 binding enrichment (SHP2-C SH2) | SH2 binding enrichment (Grb2 SH2)
1 | LFDPDFMKVIL [CYP4A22_Y104_Y104F_YF] | 0.899 | 0.999 | 2.6 | 2.74 | 1.12 | 1.86 | 0.908 | 1.23 | 1.63 | 1.15 | 1.06 | 2.44 | 2.1 | 0.463 | 0.543 | 1.06
2 | LFRFGYANTSE [SI_Y1233_C1229Y_YF] | 0.411 | 0.433 | 0.937 | 0.807 | 0.51 | 0.497 | 0.585 | 0.376 | 0.378 | 0.619 | 0.315 | 0.696 | 0.847 | 0.936 | 0.95 | 1.48
3 | LFSINYLHFGE [KDM4C_Y201_YF] | 0.624 | 0.822 | 1.6 | 1.29 | 0.65 | 0.899 | 0.661 | 0.528 | 1.3 | 0.902 | 0.634 | 1.35 | 0.953 | 1.27 | 2.78 | 1.38
4 | LFVDVYGPSVP [NUBPL_Y109_D105Y_YF] | 1.16 | 0.748 | 1.34 | 1.17 | 1.5 | 0.709 | 0.545 | 1.47 | 0.576 | 0.482 | 0.355 | 1.23 | 0.717 | 0.42 | 0.684 | 0.921
5 | LGKLIYPVGFW [NTHL1_Y177] | 0.752 | 0.557 | 1.87 | 1.67 | 0.746 | 1.13 | 1.02 | 1.35 | 0.999 | 0.816 | 0.634 | 1.6 | 1.27 | 1.13 | 1.55 | 1.53
6 | LGRGKSSEVFE [CSNK2A1_Y50_Y50S] | 0.646 | 0.593 | 1.01 | 0.996 | 0.517 | 0.661 | 0.605 | 0.653 | 0.341 | 0.438 | 0.639 | 0.923 | 0.835 | 0.337 | 0.547 | 0.65
7 | LGRGKYSEVFE [CSNK2A1_Y50] | 1.19 | 0.478 | 1.19 | 0.929 | 0.768 | 0.805 | 0.798 | 0.704 | 0.514 | 0.685 | 0.753 | 1.01 | 0.924 | 1.44 | 0.701 | 0.739
8 | LGRTRYQHVTG [MIPEP_Y510] | 0.488 | 0.377 | 0.723 | 0.559 | 0.309 | 0.428 | 0.393 | 0.445 | 0.439 | 0.477 | 0.499 | 0.694 | 0.564 | 0.748 | 0.767 | 0.881
9 | LHAAAYQNALA [UQCRC2_Y182_R183Q] | 0.474 | 0.427 | 0.715 | 0.646 | 0.45 | 0.476 | 0.423 | 0.393 | 0.433 | 0.512 | 0.4 | 1.01 | 0.495 | 0.837 | 0.611 | 8.54
10 | LHRAHYDLHHT [AHSG_Y314_R317H] | 0.637 | 1.36 | 1.01 | 0.646 | 0.553 | 0.857 | 0.674 | 0.505 | 0.69 | 0.511 | 0.496 | 0.836 | 0.781 | 1.86 | 1.92 | 1.95
11 | LHVGFYESDVM [A2M_Y708_R704H] | 0.691 | 1.9 | 1.58 | 1.34 | 0.743 | 1.21 | 1.14 | 0.676 | 1.41 | 0.889 | 1.15 | 1.18 | 0.761 | 4.23 | 0.721 | 0.95
12 | LIGRRCDDPEV [HSPA9_Y128_Y128C] | 1.12 | 0.666 | 1.51 | 1.41 | 0.575 | 1.03 | 0.623 | 0.722 | 0.782 | 0.697 | 0.582 | 1.76 | 1 | 0.431 | 0.557 | 0.997
13 | LKRIAYFLCLR [LGI1_Y21_L26R] | 0.399 | 0.435 | 1.06 | 0.949 | 0.37 | 0.601 | 0.413 | 0.341 | 0.372 | 0.365 | 0.359 | 0.997 | 0.708 | 0.583 | 0.652 | 0.841
14 | LLANAYIYVVQ [L1CAM_Y418] | 0.645 | 0.588 | 1.52 | 1.43 | 0.687 | 1.01 | 0.69 | 0.602 | 0.847 | 0.679 | 0.516 | 1.29 | 0.983 | 0.484 | 0.787 | 0.9
15 | LLEGKYEWQEV [CDKN1B_Y74_P69L] | 0.908 | 1.75 | 2.74 | 3 | 0.889 | 1.48 | 1.43 | 1.01 | 1.45 | 1.14 | 0.964 | 2 | 1.79 | 3.24 | 0.464 | 0.801
16 | LLLLFCVVRFC [MPZ_Y177_Y177C_YF] | 0.712 | 1.16 | 1.12 | 0.607 | 0.75 | 1.56 | 0.56 | 0.719 | 0.803 | 0.973 | 0.718 | 1.01 | 0.933 | 0.857 | 1.77 | 1.47
17 | LNCAGYCDALE [MTUS1_Y151] | 0.514 | 0.599 | 1.3 | 1.32 | 0.511 | 0.906 | 0.578 | 0.683 | 0.621 | 0.55 | 0.617 | 1.19 | 0.917 | 7.11 | 0.58 | 0.754

Row | Sequence | phosphorylation enrichment (Fyn) | phosphorylation enrichment (Fer (mouse)) | phosphorylation enrichment (Fes) | phosphorylation enrichment (Jak2) | phosphorylation enrichment (Hck) | phosphorylation enrichment (FGFR3) | phosphorylation enrichment (EPHB2) | phosphorylation enrichment (c-Src) | phosphorylation enrichment (EPHB1) | phosphorylation enrichment (FGFR1) | phosphorylation enrichment (MERTK) | phosphorylation enrichment (AncSZ) | phosphorylation enrichment (c-Abl (mouse)) | SH2 binding enrichment (c-Src SH2) | SH2 binding enrichment (SHP2-C SH2) | SH2 binding enrichment (Grb2 SH2)
18 | LNCIYYKDQTG [RS1_Y166_W163C] | 2.93 | 1.55 | 3.26 | 1.42 | 4.01 | 4.51 | 1.15 | 1.4 | 3.64 | 2.69 | 1.78 | 3.56 | 1.08 | 0.551 | 0.743 | 0.867
19 | LNGDRYFKGIV [DCX_Y64_R59L] | 2.87 | 3.94 | 4.84 | 0.942 | 4.24 | 3.96 | 3.35 | 0.626 | 2.3 | 4.77 | 1.37 | 4.62 | 0.703 | 0.618 | 0.686 | 0.78
20 | LNPFIYSLRNW [OR1A2_Y288] | 7.05 | 2.28 | 1.73 | 1.34 | 6.49 | 1.1 | 0.819 | 8.69 | 1.52 | 0.644 | 4.23 | 2.05 | 4.13 | 1.79 | 1.78 | 1.23
21 | LPKVSYMKAID [GLRA1_Y307_V308M] | 0.694 | 0.65 | 0.911 | 0.707 | 0.406 | 0.77 | 0.711 | 0.574 | 0.632 | 0.481 | 0.484 | 0.941 | 0.967 | 0.473 | 0.731 | 0.995
22 | LPSKDYAEVRR [HP_Y272_G276R] | 0.559 | 0.419 | 0.832 | 0.539 | 0.7 | 0.865 | 0.638 | 0.832 | 1.48 | 0.712 | 0.361 | 0.598 | 1.75 | 1.72 | 1.31 | 0.965
23 | LQFRNYQQLFD [MAN2A1_Y442_K440R] | 1.08 | 0.65 | 2.25 | 2.42 | 0.771 | 1.41 | 0.928 | 1.03 | 1.42 | 0.857 | 0.789 | 2.02 | 1.3 | 1.78 | 0.947 | 0.689
24 | LQRVQCDLQKA [DSP_Y1512_Y1512C] | 0.811 | 0.809 | 1.16 | 1.43 | 0.812 | 1.31 | 0.827 | 0.709 | 1.12 | 1.06 | 0.762 | 1.14 | 0.987 | 0.543 | 0.558 | 0.696
25 | LQTFRYHGHSM [PDHA1_Y289_YF] | 0.948 | 0.592 | 1.06 | 0.876 | 0.616 | 0.999 | 0.61 | 0.761 | 0.843 | 0.68 | 0.716 | 0.664 | 0.775 | 0.499 | 1.03 | 0.901
26 | LRAGVYPEKDQ [DNM2_Y626] | 0.454 | 0.39 | 0.971 | 0.773 | 0.662 | 0.633 | 0.498 | 0.507 | 0.443 | 0.467 | 0.43 | 0.754 | 0.803 | 0.509 | 0.779 | 0.611
27 | LRNIDYYRLDG [ATRX_Y2083] | 3.96 | 0.499 | 1.58 | 6.17 | 1.16 | 8.11 | 0.776 | 3.35 | 1.07 | 13.1 | 0.851 | 1.3 | 0.815 | 0.775 | 11.9 | 0.874
28 | LRVHSYKSMQH [DRC7_Y516_P521H] | 0.954 | 0.949 | 0.883 | 1.42 | 0.634 | 0.69 | 0.772 | 1.06 | 0.911 | 0.533 | 0.896 | 1.4 | 1.13 | 0.841 | 1.18 | 0.881
29 | LSAPCYLNRIS [HEXA_Y421_W420C] | 0.377 | 0.424 | 0.82 | 0.634 | 0.507 | 0.535 | 0.552 | 0.422 | 0.447 | 0.495 | 0.382 | 0.825 | 0.631 | 0.594 | 0.888 | 1.14
30 | LSIQCYLRALD [HMGCS2_Y262] | 0.825 | 0.822 | 2.81 | 2.35 | 1.12 | 1.91 | 1.31 | 1.01 | 1.25 | 0.672 | 0.802 | 2.06 | 1.98 | 0.454 | 0.49 | 0.708
31 | LSIWPYLQKID [MFSD8_Y63_M58L] | 0.501 | 0.577 | 1.37 | 1.43 | 0.566 | 0.85 | 0.759 | 0.686 | 0.929 | 0.584 | 0.6 | 1.16 | 0.6 | 0.797 | 1.1 | 1.23
32 | LSNFNYEQRGA [API5_Y497_G493S] | 1.14 | 0.651 | 1.51 | 1.41 | 0.509 | 1.02 | 1.15 | 1.14 | 0.796 | 0.918 | 0.796 | 1.21 | 1.11 | 0.48 | 0.706 | 0.897
33 | LSVEIHDRREF [ITGB7_Y753_Y753H_YF] | 0.65 | 0.795 | 1.59 | 1.3 | 0.814 | 1.17 | 1.1 | 0.795 | 0.88 | 0.87 | 0.558 | 1.63 | 0.86 | 0.421 | 0.563 | 0.678
